Reference: US12077763B2, “RNA-based control of powdery mildew” (Greenlight Biosciences, Inc., priority 2021, dated 2024)

System: E. necator
Test: Leaf disc assay, dry inoculum (settling tower), decrease in disease severity / hyphal growth (Example 2)
Conditions: decrease in disease severity (hyphal growth) relative to untreated control, value ± SE; for % decrease =/− SE TP1: time point 1 (untreated control hyphal growth ≥50%); for % decrease =/− SE TP2: time point 2

Molecule	% decrease =/− SE TP1	% decrease =/− SE TP2
GS3606 (nucleic acid) sense: UAAGGUUGUGUCGGACAACACGAUUCAUACGAGCACUCCCGUCAUCUAAAUCAUCAUCUGCGAGUACAAUUAAAACAGUAUCCUUUCGCUUCUUCCCCUUAACUAGGACAGUAUCUCCACGAAAAAGCUGCAAAGUUUCCAUGGUAUUAUUUGACAGUGCAAUAACAGAGUUAUCAUCGUUGAUGGCAUCUGUUACAAUUAAGGAAUUUGGCUUUUUCUUCUUUUUUAAAAUAGCAGUCGCAGUAGCAUCAAUCGUCUUUUGUUCAGCGCCAGAGGCAUCCUCAAGUUUAACUGUUUUUU antisense: AAAAAACAGUUAAACUUGAGGAUGCCUCUGGCGCUGAACAAAAGACGAUUGAUGCUACUGCGACUGCUAUUUUAAAAAAGAAGAAAAAGCCAAAUUCCUUAAUUGUAACAGAUGCCAUCAACGAUGAUAACUCUGUUAUUGCACUGUCAAAUAAUACCAUGGAAACUUUGCAGCUUUUUCGUGGAGAUACUGUCCUAGUUAAGGGGAAGAAGCGAAAGGAUACUGUUUUAAUUGUACUCGCAGAUGAUGAUUUAGAUGACGGGAGUGCUCGUAUGAAUCGUGUUGUCCGACACAACCUUA	3 ± 6%	9 ± 7%
GS3609 (nucleic acid) sense: CUGUCAAUAUUACAGCUUGAUAUGAAUCAAACUGGGAGAGAUCAGAAACUAAGCUUGUGGAGCUGUGAAUCUUAACAGGGGUGUAAGCAUUUAGUUCCGAAACUCGUUGAGCUGAGACAAUAUCUCUAGGUUUUCCUAUAUCUUCUGGGUUAAGAAAGAAUUGAGAUGAUAGGUCAGCGAUAGUUGCGGGAGCGGGAUCGUAUAAUGUUAGACUUUUAACUCCAGCCAGAGCUAUAUUCUUAGCUAUUUCGAUACCAAGACCUUUCAAGCCAAUAAUAAGAAUAUUCGAUGCACUCAUUCGUUUCAUAGCCUCGUGUCCAAGAACGUAGAGUUGCCUACUGUAUAAAGAC antisense: GUCUUUAUACAGUAGGCAACUCUACGUUCUUGGACACGAGGCUAUGAAACGAAUGAGUGCAUCGAAUAUUCUUAUUAUUGGCUUGAAAGGUCUUGGUAUCGAAAUAGCUAAGAAUAUAGCUCUGGCUGGAGUUAAAAGUCUAACAUUAUACGAUCCCGCUCCCGCAACUAUCGCUGACCUAUCAUCUCAAUUCUUUCUUAACCCAGAAGAUAUAGGAAAACCUAGAGAUAUUGUCUCAGCUCAACGAGUUUCGGAACUAAAUGCUUACACCCCUGUUAAGAUUCACAGCUCCACAAGCUUAGUUUCUGAUCUCUCCCAGUUUGAUUCAUAUCAAGCUGUAAUAUUGACAG	13 ± 8%	9 ± 6%
GS3602 (nucleic acid) sense: CUUGGAACCGGUAUAUAUCCUAUGCAGUCCAAAAGAGUCCAGGAGUUCGGUAUCGGAUCAUAACACCAAACAUCGUUAUACCAUUGAAGACCAUUUGUUCCGCCAAACAAGUAAAGCUUUUCAUUAUAUGUCACAACUGAGUGAUUUGUUCUAGCUGAUGGUAUUUGUCCUACUGGGGGUCCACCAUCCUCACUAUUUUUAAUGAGAAUUUCCCACCUGUUCGUAGGGACUUGCAAAAGAUUCAAAUCAAAAGCCACAAGGUCAUUCAUAAAAUAACCCUCUACUUGCCCCCCGAAUACGUAGAUUUUAGACCCUAGUAUAUUGAGAGAAUGACCAUAACGCCCCGCGGG antisense: CCCGCGGGGCGUUAUGGUCAUUCUCUCAAUAUACUAGGGUCUAAAAUCUACGUAUUCGGGGGGCAAGUAGAGGGUUAUUUUAUGAAUGACCUUGUGGCUUUUGAUUUGAAUCUUUUGCAAGUCCCUACGAACAGGUGGGAAAUUCUCAUUAAAAAUAGUGAGGAUGGUGGACCCCCAGUAGGACAAAUACCAUCAGCUAGAACAAAUCACUCAGUUGUGACAUAUAAUGAAAAGCUUUACUUGUUUGGCGGAACAAAUGGUCUUCAAUGGUAUAACGAUGUUUGGUGUUAUGAUCCGAUACCGAACUCCUGGACUCUUUUGGACUGCAUAGGAUAUAUACCGGUUCCAAG	5 ± 6%	7 ± 8%
GS3603 (nucleic acid) sense: AGUCCAAAAGAGUCCAGGAGUUCGGUAUCGGAUCAUAACACCAAACAUCGUUAUACCAUUGAAGACCAUUUGUUCCGCCAAACAAGUAAAGCUUUUCAUUAUAUGUCACAACUGAGUGAUUUGUUCUAGCUGAUGGUAUUUGUCCUACUGGGGGUCCACCAUCCUCACUAUUUUUAAUGAGAAUUUCCCACCUGUUCGUAGGGACUUGCAAAAGAUUCAAAUCAAAAGCCACAAGGUCAUUCAUAAAAUAACCCUCUACUUGCCCCCCGAAUACGUAGAUUUUAGACCCUAGUAUAUUGA antisense: UCAAUAUACUAGGGUCUAAAAUCUACGUAUUCGGGGGGCAAGUAGAGGGUUAUUUUAUGAAUGACCUUGUGGCUUUUGAUUUGAAUCUUUUGCAAGUCCCUACGAACAGGUGGGAAAUUCUCAUUAAAAAUAGUGAGGAUGGUGGACCCCCAGUAGGACAAAUACCAUCAGCUAGAACAAAUCACUCAGUUGUGACAUAUAAUGAAAAGCUUUACUUGUUUGGCGGAACAAAUGGUCUUCAAUGGUAUAACGAUGUUUGGUGUUAUGAUCCGAUACCGAACUCCUGGACUCUUUUGGACU	–	7 ± 5%
GS3601 (nucleic acid) sense: CAAUUGCUGCAGCAUGACCUUCUCUUGGAACCGGUAUAUAUCCUAUGCAGUCCAAAAGAGUCCAGGAGUUCGGUAUCGGAUCAUAACACCAAACAUCGUUAUACCAUUGAAGACCAUUUGUUCCGCCAAACAAGUAAAGCUUUUCAUUAUAUGUCACAACUGAGUGAUUUGUUCUAGCUGAUGGUAUUUGUCCUACUGGGGGUCCACCAUCCUCACUAUUUUUAAUGAGAAUUUCCCACCUGUUCGUAGGGACUUGCAAAAGAUUCAAAUCAAAAGCCACAAGGUCAUUCAUAAAAUAACCCUCUACUUGCCCCCCGAAUACGUAGAUUUUAGACCCUAGUAUAUUGAGAGAAUGACCAUAACGCCCCGCGGGCCGUGGCCCGGCAGGUAUAGCUCUGGA antisense: UCCAGAGCUAUACCUGCCGGGCCACGGCCCGCGGGGCGUUAUGGUCAUUCUCUCAAUAUACUAGGGUCUAAAAUCUACGUAUUCGGGGGGCAAGUAGAGGGUUAUUUUAUGAAUGACCUUGUGGCUUUUGAUUUGAAUCUUUUGCAAGUCCCUACGAACAGGUGGGAAAUUCUCAUUAAAAAUAGUGAGGAUGGUGGACCCCCAGUAGGACAAAUACCAUCAGCUAGAACAAAUCACUCAGUUGUGACAUAUAAUGAAAAGCUUUACUUGUUUGGCGGAACAAAUGGUCUUCAAUGGUAUAACGAUGUUUGGUGUUAUGAUCCGAUACCGAACUCCUGGACUCUUUUGGACUGCAUAGGAUAUAUACCGGUUCCAAGAGAAGGUCAUGCUGCAGCAAUUG	–	2 ± 3%
GS3524 (nucleic acid) sense: UCAAGUCCACUUCGAUUUGUAAAGCAAGAAGUUAUGAGACCUUGAGAAUGACUGAGGUAGGCCGAAUAAGAUUUUCAGAUUCUAAAAUACUGGAUUUUGGUACCAAUUCAUGAUCCUUUCUGGCCCCCUUACAUUGGCGACAAGGCAGAUAGUCAUCGAGUUGGUCUUUUCCAGUCAAAGAAUGAUAAUCUCCAACGUCUUUCCGGGAAACAGAAGUUGUAUUGACAUUAAUUACAGCUGUGGAUGAGGAUGAACGAUAAUAUUGGCGUUGAGCUACAGGGAAGGGAUUCAACAGAUGCCAUUGCCAUUCAUAAUUUCCAUGAAGCCAAGUCGUUGAAGCCAGAGAUGCAAGUGUAUGGAAGAAUCCCAAGAGCCAAUUGAUUGAAGACAGAAUUACU antisense: AGUAAUUCUGUCUUCAAUCAAUUGGCUCUUGGGAUUCUUCCAUACACUUGCAUCUCUGGCUUCAACGACUUGGCUUCAUGGAAAUUAUGAAUGGCAAUGGCAUCUGUUGAAUCCCUUCCCUGUAGCUCAACGCCAAUAUUAUCGUUCAUCCUCAUCCACAGCUGUAAUUAAUGUCAAUACAACUUCUGUUUCCCGGAAAGACGUUGGAGAUUAUCAUUCUUUGACUGGAAAAGACCAACUCGAUGACUAUCUGCCUUGUCGCCAAUGUAAGGGGGCCAGAAAGGAUCAUGAAUUGGUACCAAAAUCCAGUAUUUUAGAAUCUGAAAAUCUUAUUCGGCCUACCUCAGUCAUUCUCAAGGUCUCAUAACUUCUUGCUUUACAAAUCGAAGUGGACUUGA	3 ± 11%	22 ± 12%
GS3526 (nucleic acid) sense: UAUCCCUGAUUUCUAUAGUCUGAUGAAGAAUGAUUUUUGUAGGCAAUAGACUUUCUUCUCUUCCCAGAACAGCAGCUUCUACAGCAUCCACAACAGCUUAGGAAAGAGAAGCAAGAACAACAAAAUGAGUAUCCAAAGCACAAGCAGCGUGUCAUACAAAUGAUAAUUGAGAGGACUAUUAAGCCACCGAUAACAAGUCCGAUUAUUGCUGGCCAUUUGCAAUAAAUUUGUAUCAUGCAUUUAUCCCAGUUGGUGAAUGAAGAAGUAACGUUUGAUACUUGAUUAGUUAAUUGAUCACUCAACUGAUCACUUACAAGCCUUGGCCUAAGCAAACUAAUCUCCAAAAAAUUCAUGUUUCCAAUAUUAACACCUCCGUGAUCUUCAUUAAAUAAGUAA antisense: UUACUUAUUUAAUGAAGAUCACGGAGGUGUUAAUAUUGGAAACAUGAAUUUUUUGGAGAUUAGUUUGCUUAGGCCAAGGCUUGUAAGUGAUCAGUUGAGUGAUCAAUUAACUAAUCAAGUAUCAAACGUUACUUCUUCAUUCACCAACUGGGAUAAAUGCAUGAUACAAAUUUAUUGCAAAUGGCCAGCAAUAAUCGGACUUGUUAUCGGUGGCUUAAUAGUCCUCUCAAUUAUCAUUUGUAUGACACGCUGCUUGUGCUUUGGAUACUCAUUUUGUUGUUCUUGCUUCUCUUUCCUAAGCUGUUGUGGAUGCUGUAGAAGCUGCUGUUCUGGGAAGAGAAGAAAGUCUAUUGCCUACAAAAAUCAUUCUUCAUCAGACUAUAGAAAUCAGGGAUA	22 ± 10%	11 ± 10%
GS3525 (nucleic acid) sense: CUGGAAUUGUUGCACUGGCCAUGUAAAGCAGUUUAUGACUCGUCUAAAUAUUUAAUUACGGCUAUGCACGGAGAGCUUGGGGUUACUGUUUUUUUUUCUCAAAAAUAUGCCGGUGGGAUUCGAAUUGGUCCGGAUAUUUUUUCUGUAAAUAAUUGAGUGACGGCUUUGUACUCGUGAUAAUUACAGACAAAUCUAAUAUAAUGUGCUUAUCCUUCUAACGAACUUCGGAGAAUGAUUUGUUUUAUUGAGUGAUUAGUUGACUUGUUUUAUUAGUUAUGGUUAUCAAACGAUCACAUAAAAAAACGCAUACUUUUUACAAUGAAGUGAUUGUAUACCAAUGUUUCCCUUGGUGGCCCUCAAAAAACUAAGUUAGAUAGAU antisense: AUCUAUCUAACUUAGUUUUUUGAGGGCCACCAAGGGAAACAUUGGUAUACAAUCACUUCAUUGUAAAAAGUAUGCGUUUUUUUAUGUGAUCGUUUGAUAACCAUAACUAAUAAAACAAGUCAACUAAUCACUCAAUAAAACAAAUCAUUCUCCGAAGUUCGUUAGAAGGAUAAGCACAUUAUAUUAGAUUUGUCUGUAAUUAUCACGAGUACAAAGCCGUCACUCAAUUAUUUACAGAAAAAAUAUCCGGACCAAUUCGAAUCCCACCGGCAUAUUUUUGAGAAAAAAAAACAGUAACCCCAAGCUCUCCGUGCAUAGCCGUAAUUAAAUAUUUAGACGAGUCAUAAACUGCUUUACAUGGCCAGUGCAACAAUUCCAG	17 ± 9%	34 ± 8%
